Laboratory results: publication PMC4632185, “Mechanistic basis of Nek7 activation through Nek9 binding and induced dimerization” (Nature Communications, 2015)
Blank lines part the entries; values can stand above or below the binder they belong to.

B3: Nek7 N90A (enzyme)
chain: not shown
B4: Nek7 N90K (enzyme)
chain: not shown
B6: Nek7 N90R (enzyme)
chain: not shown

Legend:
[1] = target: T1, Nek7^Y97F, full length (human, UniProt Q8TDX7 1-302, Y97F); test: crystal structure; co-crystallisation by sitting drop vapour diffusion, Nek7^Y97F at 440 μM and Nek9 peptide at 880 μM; 0.2 M potassium thiocyanate, 0.1 M bis-Tris propane pH 7.5, 20% PEG 3350; 2.78 Å, space group P3_(1) 2 1; conditions: both partners purified
T1 construct: Nek7, human, full length; residues 20-300 modelled in the structure; source: E. coli Codonplus RPIL, co-expressed with or without λ-phosphatase, purified (HisTRAP, Superdex-200)

[2] = target: T2, Nek7-His6, full-length wild type, unphosphorylated (human, UniProt Q8TDX7 1-302); test: pull-down; GST co-precipitation: 100 μg GST-Nek9 protein immobilised on glutathione sepharose-4B beads, incubated with 100 μg Nek7 in 500 μl for 1 h at 4 °C; 50 mM HEPES pH 7.5, 300 mM NaCl, 5% glycerol, 5 mM dithiothreitol, 0.05% Tween-20; Coomassie staining or immunoblot with α-His6; conditions: both partners purified
T2 construct: Nek7 (NIMA-related kinase 7), human, full length; also called Nek7^WT; unphosphorylated Nek7^WT; source: E. coli Codonplus RPIL, co-expressed with or without λ-phosphatase, purified (HisTRAP, Superdex-200); not shown: His6, C-terminal, kept

[3] = target: the molecule itself; test: cell-based or functional assay
[4] = target: T3, Nek7^Y97A, full length (human, UniProt Q8TDX7 1-302, Y97A); test: pull-down; GST co-precipitation: 100 μg GST-Nek9 protein immobilised on glutathione sepharose-4B beads, incubated with 100 μg Nek7 in 500 μl for 1 h at 4 °C; 50 mM HEPES pH 7.5, 300 mM NaCl, 5% glycerol, 5 mM dithiothreitol, 0.05% Tween-20; Coomassie staining or immunoblot with α-His6; conditions: both partners purified
T3 construct: Nek7, human, full length; source: E. coli Codonplus RPIL, co-expressed with or without λ-phosphatase, purified (HisTRAP, Superdex-200)

[5] = target: B3; test: as above; conditions: both partners purified
[6] = target: T4, phosphorylated Nek7^WT (human, UniProt Q8TDX7 1-302, phosphorylated (sites not stated for this preparation)); test: as above; conditions: both partners purified
T4 construct: Nek7, human, full length; also called phospho-Nek7^WT; source: E. coli Codonplus RPIL, co-expressed with or without λ-phosphatase, purified (HisTRAP, Superdex-200)

[7] = target: B4; test: as above; conditions: both partners purified
[8] = target: T1, Nek7^Y97F, full length; test: as above; conditions: both partners purified
[9] = target: T5, Nek7 K96E (human, UniProt Q8TDX7 1-302, K96E); test: as above; conditions: both partners purified
T5 construct: Nek7, human, full length; source: E. coli Codonplus RPIL, co-expressed with or without λ-phosphatase, purified (HisTRAP, Superdex-200)

[10] = target: B6; test: as above; conditions: both partners purified

T2 sequence (Q8TDX7 whole entry): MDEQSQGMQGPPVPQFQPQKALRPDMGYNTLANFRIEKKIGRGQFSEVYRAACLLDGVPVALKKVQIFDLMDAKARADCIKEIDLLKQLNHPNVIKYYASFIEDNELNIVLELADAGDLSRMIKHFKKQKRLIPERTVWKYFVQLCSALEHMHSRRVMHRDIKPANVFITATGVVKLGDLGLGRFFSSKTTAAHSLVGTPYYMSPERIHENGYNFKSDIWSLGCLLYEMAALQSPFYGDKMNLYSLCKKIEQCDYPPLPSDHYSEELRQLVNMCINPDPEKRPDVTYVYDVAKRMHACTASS
T1 sequence (Q8TDX7 whole entry Y97F, the tested form may be a part): as the sequence (Q8TDX7 whole entry) above, with Y97F counted along it
T3 sequence (Q8TDX7 whole entry Y97A): as the sequence (Q8TDX7 whole entry) above, with Y97A counted along it
T4 sequence (Q8TDX7 whole entry): as the sequence (Q8TDX7 whole entry) above
T5 sequence (Q8TDX7 whole entry K96E): as the sequence (Q8TDX7 whole entry) above, with K96E counted along it

B1: synthetic peptide corresponding to aa 810–828 of Nek9 (peptide, UniProt Q8TD19 810-828, looked up)
peptide: GWLRKELENAEFIPMPDSP
notes: source: synthetic peptide (Peptide Synthetics)
binding result [1]: binds

Binder: B3
fold decrease in in vitro kinase activity of the initially unphosphorylated Nek7 mutant, against WT (32P incorporation, scintillation counting) [3]: ~2 fold

Binder: B4
in vitro kinase activity of the initially unphosphorylated Nek7 mutant, in the presence or absence of Nek9-CTD, against WT (32P incorporation, scintillation counting) [3]: ≤ 10 fold

Binder: B6
in vitro kinase activity of the initially unphosphorylated Nek7 mutant, in the presence or absence of Nek9-CTD, against WT (32P incorporation, scintillation counting) [3]: ≤ 10 fold

Now from value to binder:

binding result [2]: binds
B2: GST-Nek9 810–828 (domain or fragment, human, UniProt Q8TD19 810-828, looked up)
chain: GWLRKELENAEFIPMPDSP
notes: source: E. coli, purified (glutathione sepharose)

binding result [4]: binds | binding result [5]: binds | binding result [6]: binds | binding result [7]: binds | binding result [8]: binds | binding result [9]: binds | binding result [2]: binds | binding result [10]: binds
B5: GST-Nek9-CTD (aa 726–979) (domain or fragment, human, UniProt Q8TD19 726-979, looked up)
chain: KVLNSKTIRSNSSGLSIGTVFQSSSPGGGGGGGGGEEEDSQQESETPDPSGGFRGTMEADRGMEGLISPTEAMGNSNGASSSCPGWLRKELENAEFIPMPDSPSPLSAAFSESEKDTLPYEELQGLKVASEAPLEHKPQVEASSPRLNPAVTCAGKGTPLTPPACACSSLQVEVERLQGLVLKCLAEQQKLQQENLQIFTQLQKLNKKLEGGQQVGMHSKGTQTAKEEMEMDPKPDLDSDSWCLLGTDSCRPSL
notes: Nek9, human, C-terminal domain, residues 726-979; For some kinase assays the GST tag was removed with 3C protease; also called Nek9 non-catalytic C-terminal domain; N9 CTD; source: E. coli, purified (glutathione sepharose); not shown: GST, N-terminal, kept
